Where no end group is shown, it is not given here.
Assays:
Table 9 peptide No. 10 = biological target: T1, Table 9 peptide No. 10 (human, not fully specified); assay: PEPSCAN CLIPS peptide ELISA
T1 peptide: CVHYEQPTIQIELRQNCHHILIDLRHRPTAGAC

Table 9 peptide No. 12 = biological target: T2, Table 9 peptide No. 12 (human, not fully specified); assay: PEPSCAN CLIPS peptide ELISA
T2 peptide: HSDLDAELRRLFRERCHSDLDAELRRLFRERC

Table 9 peptide No. 19 = biological target: T3, Table 9 peptide No. 19 (human, not fully specified); assay: PEPSCAN CLIPS peptide ELISA
T3 peptide: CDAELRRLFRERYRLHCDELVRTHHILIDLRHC

Table 9 peptide No. 24 = biological target: T4, Table 9 peptide No. 24 (human, not fully specified); assay: PEPSCAN CLIPS peptide ELISA
T4 peptide: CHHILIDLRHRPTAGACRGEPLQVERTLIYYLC

Table 9 peptide No. 5 = biological target: T5, Table 9 peptide No. 5 (human, not fully specified); assay: PEPSCAN CLIPS peptide ELISA
T5 peptide: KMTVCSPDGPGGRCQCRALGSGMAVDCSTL

Table 9 peptide No. 28 = biological target: T6, Table 9 peptide No. 28 (human, not fully specified); assay: PEPSCAN CLIPS peptide ELISA
T6 peptide: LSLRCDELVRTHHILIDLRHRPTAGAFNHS

Table 9 peptide No. 21 = biological target: T7, Table 9 peptide No. 21 (human, not fully specified); assay: PEPSCAN CLIPS peptide ELISA
T7 peptide: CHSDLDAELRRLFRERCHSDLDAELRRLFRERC

Table 9 peptide No. 26 = Table 9 peptide No. 26 (human); assay: PEPSCAN CLIPS peptide ELISA
Table 9 peptide No. 16 = biological target: T8, Table 9 peptide No. 16 (human, not fully specified); assay: PEPSCAN CLIPS peptide ELISA
T8 peptide: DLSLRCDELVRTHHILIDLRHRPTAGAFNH

Table 9 peptide No. 29 = Table 9 peptide No. 29 (human); assay: PEPSCAN CLIPS peptide ELISA
Table 9 peptide No. 23 = biological target: T9, Table 9 peptide No. 23 (human, not fully specified); assay: PEPSCAN CLIPS peptide ELISA
T9 peptide: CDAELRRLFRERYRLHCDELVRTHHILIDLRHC

Table 9 peptide No. 22 = biological target: T10, Table 9 peptide No. 22 (human, not fully specified); assay: PEPSCAN CLIPS peptide ELISA
T10 peptide: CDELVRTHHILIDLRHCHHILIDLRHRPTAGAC

Table 9 peptide No. 17 = biological target: T11, Table 9 peptide No. 17 (human, not fully specified); assay: PEPSCAN CLIPS peptide ELISA
T11 peptide: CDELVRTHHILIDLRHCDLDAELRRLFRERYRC

Table 9 peptide No. 20 = biological target: T12, Table 9 peptide No. 20 (human, not fully specified); assay: PEPSCAN CLIPS peptide ELISA
T12 peptide: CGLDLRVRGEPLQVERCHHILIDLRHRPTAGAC

Table 9 peptide No. 18 = biological target: T13, Table 9 peptide No. 18 (human, not fully specified; cysteine pairing not given here); assay: PEPSCAN CLIPS peptide ELISA
T13 peptide: CFQGRGGLDLRVRGEPC

Table 9 peptide No. 25 = biological target: T14, Table 9 peptide No. 25 (human, not fully specified; cysteine pairing not given here); assay: PEPSCAN CLIPS peptide ELISA
T14 peptide: CSPDGPGGRCQCRAL

Table 9 peptide No. 2 = biological target: T15, Table 9 peptide No. 2 (human, not fully specified); assay: PEPSCAN CLIPS peptide ELISA
T15 peptide: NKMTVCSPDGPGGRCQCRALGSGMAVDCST

Table 9 peptide No. 15 = biological target: T16, Table 9 peptide No. 15 (human, not fully specified); assay: PEPSCAN CLIPS peptide ELISA
T16 peptide: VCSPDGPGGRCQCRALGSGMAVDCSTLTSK

Table 9 peptide No. 14 = biological target: T17, Table 9 peptide No. 14 (human, not fully specified; cysteine pairing not given here); assay: PEPSCAN CLIPS peptide ELISA
T17 peptide: CDAELRRLFRERYRLHCPK

Table 9 peptide No. 6 = biological target: T18, Table 9 peptide No. 6 (human, not fully specified); assay: PEPSCAN CLIPS peptide ELISA
T18 peptide: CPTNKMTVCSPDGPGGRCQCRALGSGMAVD

Table 9 peptide No. 1 = biological target: T19, Table 9 peptide No. 1 (human, not fully specified); assay: PEPSCAN CLIPS peptide ELISA
T19 peptide: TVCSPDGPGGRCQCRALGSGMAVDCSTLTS

Table 9 peptide No. 3 = biological target: T20, Table 9 peptide No. 3 (human, not fully specified); assay: PEPSCAN CLIPS peptide ELISA
T20 peptide: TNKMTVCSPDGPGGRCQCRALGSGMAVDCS

Table 9 peptide No. 4 = biological target: T21, Table 9 peptide No. 4 (human, not fully specified); assay: PEPSCAN CLIPS peptide ELISA
T21 peptide: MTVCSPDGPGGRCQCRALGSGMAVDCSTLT

Table 9 peptide No. 13 = biological target: T22, Table 9 peptide No. 13 (human, not fully specified); assay: PEPSCAN CLIPS peptide ELISA
T22 peptide: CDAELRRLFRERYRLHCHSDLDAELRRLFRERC

Table 9 peptide No. 27 = biological target: T23, Table 9 peptide No. 27 (human, not fully specified); assay: PEPSCAN CLIPS peptide ELISA
T23 peptide: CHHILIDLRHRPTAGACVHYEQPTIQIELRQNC

Table 9 peptide No. 9 = biological target: T24, Table 9 peptide No. 9 (human, not fully specified; cysteine pairing not given here); assay: PEPSCAN CLIPS peptide ELISA
T24 peptide: CTHHILIDLRHRPTAGC

Table 9 peptide No. 11 = biological target: T25, Table 9 peptide No. 11 (human, not fully specified); assay: PEPSCAN CLIPS peptide ELISA
T25 peptide: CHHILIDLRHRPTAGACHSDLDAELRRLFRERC

Table 9 peptide No. 8 = biological target: T26, Table 9 peptide No. 8 (human, not fully specified); assay: PEPSCAN CLIPS peptide ELISA
T26 peptide: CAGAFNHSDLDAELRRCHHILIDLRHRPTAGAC

Table 9 peptide No. 7 = biological target: T27, Table 9 peptide No. 7 (human, not fully specified); assay: PEPSCAN CLIPS peptide ELISA
T27 peptide: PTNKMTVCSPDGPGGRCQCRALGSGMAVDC

human TROP-2 (hTROP-2) [1] = biological target: T28, human TROP-2 (hTROP-2) (human); assay: FACS on BxPC-3 cells
T28 chain: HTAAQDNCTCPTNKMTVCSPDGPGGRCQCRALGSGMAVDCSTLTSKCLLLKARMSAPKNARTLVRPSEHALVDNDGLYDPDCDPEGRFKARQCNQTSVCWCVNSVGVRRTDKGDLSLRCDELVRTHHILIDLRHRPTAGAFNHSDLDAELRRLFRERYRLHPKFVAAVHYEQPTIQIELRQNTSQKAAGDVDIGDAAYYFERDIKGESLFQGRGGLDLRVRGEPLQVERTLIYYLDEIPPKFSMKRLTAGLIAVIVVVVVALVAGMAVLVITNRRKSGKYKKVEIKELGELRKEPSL

human TROP-2 (hTROP-2) [2] = biological target: T28, human TROP-2 (hTROP-2); assay: FACS on PK-59 cells
[3] = biological target: T29, recombinant protein of the extracellular region of hTROP-2 (human); assay: ELISA of free antibody after equilibration with antigen in solution
T29 sequence: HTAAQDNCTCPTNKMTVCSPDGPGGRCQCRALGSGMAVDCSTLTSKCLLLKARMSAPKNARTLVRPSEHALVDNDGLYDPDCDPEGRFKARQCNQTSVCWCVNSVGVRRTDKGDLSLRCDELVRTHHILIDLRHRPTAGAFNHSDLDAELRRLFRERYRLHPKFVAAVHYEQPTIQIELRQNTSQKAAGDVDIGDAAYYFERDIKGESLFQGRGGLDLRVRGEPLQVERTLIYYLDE

Table 9 peptide No. 29 (human), sequence (peptide, as listed by the source): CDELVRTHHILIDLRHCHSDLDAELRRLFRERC
Table 9 peptide No. 26 (human), sequence (peptide, as listed by the source): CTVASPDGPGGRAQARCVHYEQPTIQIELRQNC

B1: anti-hTROP-2 monoclonal antibody K5-116-2-1 (antibody, V domains shown)
VH: QVQLQQPGAELVRPGASVKLSCKASGYTFTSYWITWVKQRPGQGLEWIGNIYPSDSYTNYNQKFRDKATLTVDKSSSTAYMQLSSPTSEDSAVYYCSALFDYWGQGTTLTVSS
VL: DILLTQSPAILSVSPGERVSFSCRASQSIGTSIHWYQQRTNGSPRLLIKYASESISGIPSRFSGSGSGTDFILSINSVESEDIADYYCQQSNSWPFTFGSGTKLEIK
binding of K5-116-2-1 (Table 9 peptide No. 10): 1500
binding of K5-116-2-1 (Table 9 peptide No. 12): 1470
binding of K5-116-2-1 (Table 9 peptide No. 19): 1370
binding of K5-116-2-1 (Table 9 peptide No. 24): 1230
binding of K5-116-2-1 (Table 9 peptide No. 5): 2420
binding of K5-116-2-1 (Table 9 peptide No. 28): 1220
binding of K5-116-2-1 (Table 9 peptide No. 21): 1330
binding of K5-116-2-1 (Table 9 peptide No. 26): 1220
binding of K5-116-2-1 (Table 9 peptide No. 16): 1420
binding of K5-116-2-1 (Table 9 peptide No. 29): 1200
binding of K5-116-2-1 (Table 9 peptide No. 23): 1270
binding of K5-116-2-1 (Table 9 peptide No. 22): 1320
binding of K5-116-2-1 (Table 9 peptide No. 17): 1390
binding of K5-116-2-1 (Table 9 peptide No. 20): 1340
binding of K5-116-2-1 (Table 9 peptide No. 18): 1380
binding of K5-116-2-1 (Table 9 peptide No. 25): 1230
binding of K5-116-2-1 (Table 9 peptide No. 2): 2610
binding of K5-116-2-1 (Table 9 peptide No. 15): 1430
binding of K5-116-2-1 (Table 9 peptide No. 14): 1440
binding of K5-116-2-1 (Table 9 peptide No. 6): 2140
binding of K5-116-2-1 (Table 9 peptide No. 1): 2670
binding of K5-116-2-1 (Table 9 peptide No. 3): 2480
binding of K5-116-2-1 (Table 9 peptide No. 4): 2440
binding of K5-116-2-1 (Table 9 peptide No. 13): 1460
binding of K5-116-2-1 (Table 9 peptide No. 27): 1220
binding of K5-116-2-1 (Table 9 peptide No. 9): 1590
binding of K5-116-2-1 (Table 9 peptide No. 11): 1480
binding of K5-116-2-1 (Table 9 peptide No. 8): 1640
binding of K5-116-2-1 (Table 9 peptide No. 7): 1720
mean fluorescence intensity, times that with PE-labeled anti-mouse IgG only (human TROP-2 (hTROP-2) [1]): 121 times
mean fluorescence intensity, times that with PE-labeled anti-mouse IgG only (human TROP-2 (hTROP-2) [2]): 122 times
Kd [3]: 0.0269 nM

— patent US9062100B2, “Anti-human TROP-2 antibody having anti-tumor activity in vivo” (LIVTECH, INC., dated 2015)
